This is an account of results in article PMC6200776.

In assay [1] the target is NanoLuc-VEGFR2 (UniProt P35968). The experiment in a line: FRET or BRET; NanoBRET kinetics: live HEK293T cells with NanoLuc receptor, furimazine 5 min before 1-20 nM fluorescent VEGF, read every 30 s at 37°C; global fit of five concentrations; KD as koff/kon. For orientation: Bioluminescence resonance energy transfer reports proximity on the nanometre scale.
The next assay concerns the target VEGF121a-TMR. The experiment in a line: fluorescence SDS-PAGE with and without DTT; purified VEGF-TMR isoforms in the presence or absence of 100 mM DTT; dimer in non-reducing conditions.
Assay [2] has as its target NanoLuc-VEGFR2 (UniProt P35968). The experiment in a line: FRET or BRET; NanoBRET saturation: live HEK293T cells stably expressing the N-terminal NanoLuc receptor; increasing fluorescent VEGF with or without 100 nM unlabelled VEGF; 60 min, 37°C, HBSS/0.1% BSA.
For assay [3], the target named is NanoLuc-NRP1 (UniProt O14786). The experiment in a line: FRET or BRET; NanoBRET full displacement: live HEK293T cells with NanoLuc receptor; increasing unlabelled VEGF (R&D Systems) added together with five fixed concentrations of fluorescent VEGF; 60 min, 37°C, HBSS/0.1% BSA.
Chain of UniProt O14786 (O14786 22-923): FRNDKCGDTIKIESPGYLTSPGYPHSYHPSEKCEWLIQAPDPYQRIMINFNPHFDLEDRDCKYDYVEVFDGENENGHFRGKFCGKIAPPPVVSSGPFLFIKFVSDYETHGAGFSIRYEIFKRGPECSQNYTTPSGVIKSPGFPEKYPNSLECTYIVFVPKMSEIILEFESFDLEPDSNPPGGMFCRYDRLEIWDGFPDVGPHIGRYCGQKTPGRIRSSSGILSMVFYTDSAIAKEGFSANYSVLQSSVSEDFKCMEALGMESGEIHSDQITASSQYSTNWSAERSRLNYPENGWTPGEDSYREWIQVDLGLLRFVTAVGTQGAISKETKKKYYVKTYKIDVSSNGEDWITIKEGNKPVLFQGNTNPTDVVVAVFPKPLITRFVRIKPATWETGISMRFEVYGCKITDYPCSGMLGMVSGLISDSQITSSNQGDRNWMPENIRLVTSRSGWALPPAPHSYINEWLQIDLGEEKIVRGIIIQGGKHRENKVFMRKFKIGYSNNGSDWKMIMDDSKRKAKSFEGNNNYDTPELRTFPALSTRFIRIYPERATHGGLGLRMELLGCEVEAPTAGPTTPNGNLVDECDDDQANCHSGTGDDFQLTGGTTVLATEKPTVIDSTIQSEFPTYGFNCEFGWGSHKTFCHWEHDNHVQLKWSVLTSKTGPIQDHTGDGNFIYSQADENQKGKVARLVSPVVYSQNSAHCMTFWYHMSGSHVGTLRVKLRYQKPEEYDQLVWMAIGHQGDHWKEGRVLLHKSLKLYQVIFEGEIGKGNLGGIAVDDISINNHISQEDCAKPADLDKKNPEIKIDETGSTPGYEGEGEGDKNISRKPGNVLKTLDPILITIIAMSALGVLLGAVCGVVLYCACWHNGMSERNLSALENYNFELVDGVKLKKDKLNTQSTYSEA
The target of assay [4] is NanoLuc-NRP1 (UniProt O14786). The experiment in a line: FRET or BRET; NanoBRET kinetics: live HEK293T cells with NanoLuc receptor, furimazine 5 min before 1-20 nM fluorescent VEGF, read every 30 s at 37°C; global fit of five concentrations; KD as koff/kon.
The target of assay [5] is NanoLuc-NRP1 (UniProt O14786). The experiment in a line: FRET or BRET; NanoBRET saturation: live HEK293T cells stably expressing the N-terminal NanoLuc receptor; increasing fluorescent VEGF with or without 100 nM unlabelled VEGF; 60 min, 37°C, HBSS/0.1% BSA.
Assay [6] concerns the target NanoLuc-VEGFR2 (UniProt P35968).
The target of another assay is VEGF165b-TMR. The experiment in a line: fluorescence SDS-PAGE with and without DTT; purified VEGF-TMR isoforms in the presence or absence of 100 mM DTT; dimer in non-reducing conditions.

Chain of UniProt P35968 (P35968 20-1356): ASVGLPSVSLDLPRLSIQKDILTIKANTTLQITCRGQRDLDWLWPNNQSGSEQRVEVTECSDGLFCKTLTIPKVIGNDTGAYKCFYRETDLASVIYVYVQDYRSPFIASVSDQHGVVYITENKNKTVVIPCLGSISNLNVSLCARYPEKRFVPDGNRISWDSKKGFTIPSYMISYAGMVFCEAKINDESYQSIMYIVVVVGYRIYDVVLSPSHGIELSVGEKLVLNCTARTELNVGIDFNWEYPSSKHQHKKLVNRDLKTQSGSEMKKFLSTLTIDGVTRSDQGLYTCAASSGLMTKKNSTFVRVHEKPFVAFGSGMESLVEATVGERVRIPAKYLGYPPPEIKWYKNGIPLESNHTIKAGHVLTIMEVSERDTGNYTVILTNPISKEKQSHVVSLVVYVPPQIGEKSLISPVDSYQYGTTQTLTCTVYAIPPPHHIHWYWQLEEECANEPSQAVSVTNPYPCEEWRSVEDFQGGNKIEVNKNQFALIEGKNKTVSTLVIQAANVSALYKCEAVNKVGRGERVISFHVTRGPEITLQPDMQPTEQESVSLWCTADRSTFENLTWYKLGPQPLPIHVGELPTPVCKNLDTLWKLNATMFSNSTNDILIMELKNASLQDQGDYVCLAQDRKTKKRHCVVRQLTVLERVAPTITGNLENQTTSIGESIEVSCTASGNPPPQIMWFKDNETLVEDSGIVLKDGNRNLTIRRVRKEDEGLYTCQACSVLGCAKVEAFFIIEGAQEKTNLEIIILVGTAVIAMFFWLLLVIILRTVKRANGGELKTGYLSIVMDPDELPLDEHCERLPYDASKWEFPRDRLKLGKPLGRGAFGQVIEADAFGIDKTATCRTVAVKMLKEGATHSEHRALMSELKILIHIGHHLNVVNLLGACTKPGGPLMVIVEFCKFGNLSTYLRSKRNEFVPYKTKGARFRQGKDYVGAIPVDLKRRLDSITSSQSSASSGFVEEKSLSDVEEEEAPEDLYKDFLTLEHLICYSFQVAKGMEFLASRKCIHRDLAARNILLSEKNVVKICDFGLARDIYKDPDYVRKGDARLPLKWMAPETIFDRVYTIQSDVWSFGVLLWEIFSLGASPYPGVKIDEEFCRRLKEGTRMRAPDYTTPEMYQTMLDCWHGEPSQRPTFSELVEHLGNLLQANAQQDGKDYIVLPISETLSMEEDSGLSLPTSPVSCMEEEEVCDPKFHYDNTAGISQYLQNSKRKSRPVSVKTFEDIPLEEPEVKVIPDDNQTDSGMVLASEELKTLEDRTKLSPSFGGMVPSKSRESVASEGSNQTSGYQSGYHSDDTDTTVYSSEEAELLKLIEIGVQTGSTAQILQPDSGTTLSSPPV

Consider VEGF121a-TMR (ligand), for which, in the assay with NanoLuc-VEGFR2 [1], the Kd was determined as 5.75 nM, the dissociation rate constant (koff) amounted to 0.000833 s⁻¹ and the kon was 142000 M⁻¹ s⁻¹. The substance also had a stoichiometry N with VEGF121a-TMR of 2. The same substance yielded a Kd in the assay with NanoLuc-VEGFR2 [2] of 5.54 nM.
In the assay with NanoLuc-NRP1 [3], VEGF165a (ligand) showed an inhibition constant (Ki) of 0.1 nM and a pKi of 9.54.
In the case of VEGF165a-TMR (ligand), the Kd with NanoLuc-NRP1 [3] worked out at 1.11 nM; with NanoLuc-VEGFR2 [1], 6.64 nM; in the assay with NanoLuc-NRP1 [4], 4.95 nM; in the assay with NanoLuc-VEGFR2 [2], 2.03 nM; with NanoLuc-NRP1 [5] it was 4.41 nM. Further, the koff with NanoLuc-VEGFR2 [1] turned out to be 0.001 s⁻¹; with NanoLuc-NRP1 [4], 0.00433 s⁻¹. The results for the kon with NanoLuc-VEGFR2 [1] and with NanoLuc-NRP1 [4] were 257000 M⁻¹ s⁻¹ and 1.18e+06 M⁻¹ s⁻¹, respectively.
In the case of VEGF165b-TMR (ligand), the pEC50 of the NFAT reporter gene response, as told again in the discussion with another number with NanoLuc-VEGFR2 [6] is 8.28. In the assay with NanoLuc-VEGFR2 [1], this substance registered a Kd of 11.3 nM, a koff of 0.001 s⁻¹ and an association rate constant (kon) of 122000 M⁻¹ s⁻¹. In the assay with VEGF165b-TMR, this substance yielded a stoichiometry N of 2. This substance also gave a Kd with NanoLuc-VEGFR2 [2] of 9.53 nM.

For orientation: Kd means the concentration at which binding is half-saturated. Higher therefore signals a looser complex. What is called koff is the first-order rate constant of dissociation. A higher koff goes with a short-lived complex. For orientation: kon means a measure of how fast the partners come together. One may read the stoichiometry N as the number of molecules, sites or subunits per partner or assembly. One may read the Ki as the dissociation constant of the complex between target and ligand, obtained from inhibition or displacement. High values mean a looser hold on the target, low ones a stronger hold on the target. By pKi is commonly meant the negative decadic logarithm of the Ki, by convention in mol/L.
